Measured values taken from patent US20060040324A1.
Where no end group is shown, it is not given here. [ ]: non-standard residue; d: D form.

Experiments:
tuftsin receptor (human) [1] = test: competition with 99mTc-labeled peptide on HL-60 cells
tuftsin receptor (human) [2] = test: competition with trace 99mTc-labeled peptide on formalin-fixed human PMN leukocytes
[3] = target: GP IIb/IIIa platelet receptor (integrin heterodimeric glycoprotein IIb/IIIa) (human) (UniProt P08514); test: radioligand saturation binding to fresh human blood clots
Sequence of UniProt P08514 (P08514 32-1039, chain 1 of 2): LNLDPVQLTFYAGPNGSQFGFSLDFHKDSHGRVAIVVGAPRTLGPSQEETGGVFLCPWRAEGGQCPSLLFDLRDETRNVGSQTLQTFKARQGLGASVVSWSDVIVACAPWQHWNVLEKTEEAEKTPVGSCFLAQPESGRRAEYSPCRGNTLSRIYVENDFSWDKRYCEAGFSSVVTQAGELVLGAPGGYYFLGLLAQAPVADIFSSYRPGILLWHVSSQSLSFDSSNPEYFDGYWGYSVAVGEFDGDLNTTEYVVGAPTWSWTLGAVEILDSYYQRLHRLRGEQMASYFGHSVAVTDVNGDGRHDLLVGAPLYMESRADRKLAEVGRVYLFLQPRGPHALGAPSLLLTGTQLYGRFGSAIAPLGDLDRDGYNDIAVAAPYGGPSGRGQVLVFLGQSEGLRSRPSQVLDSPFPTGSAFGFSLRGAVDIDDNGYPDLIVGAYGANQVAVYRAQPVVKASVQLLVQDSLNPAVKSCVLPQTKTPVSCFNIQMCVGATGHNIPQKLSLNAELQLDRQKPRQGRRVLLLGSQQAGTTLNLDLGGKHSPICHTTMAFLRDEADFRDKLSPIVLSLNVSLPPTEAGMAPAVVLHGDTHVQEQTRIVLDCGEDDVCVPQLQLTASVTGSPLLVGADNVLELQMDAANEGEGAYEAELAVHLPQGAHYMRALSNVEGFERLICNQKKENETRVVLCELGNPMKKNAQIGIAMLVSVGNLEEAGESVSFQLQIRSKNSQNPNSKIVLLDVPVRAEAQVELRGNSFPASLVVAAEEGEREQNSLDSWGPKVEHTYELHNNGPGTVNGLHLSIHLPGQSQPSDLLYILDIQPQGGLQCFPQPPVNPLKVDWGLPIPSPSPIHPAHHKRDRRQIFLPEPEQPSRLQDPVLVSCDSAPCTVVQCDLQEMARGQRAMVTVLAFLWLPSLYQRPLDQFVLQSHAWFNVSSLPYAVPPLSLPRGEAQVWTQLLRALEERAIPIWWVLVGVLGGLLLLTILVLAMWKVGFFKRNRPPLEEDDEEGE
Sequence of UniProt P08514 (P05106 27-788, chain 2 of 2, further chain): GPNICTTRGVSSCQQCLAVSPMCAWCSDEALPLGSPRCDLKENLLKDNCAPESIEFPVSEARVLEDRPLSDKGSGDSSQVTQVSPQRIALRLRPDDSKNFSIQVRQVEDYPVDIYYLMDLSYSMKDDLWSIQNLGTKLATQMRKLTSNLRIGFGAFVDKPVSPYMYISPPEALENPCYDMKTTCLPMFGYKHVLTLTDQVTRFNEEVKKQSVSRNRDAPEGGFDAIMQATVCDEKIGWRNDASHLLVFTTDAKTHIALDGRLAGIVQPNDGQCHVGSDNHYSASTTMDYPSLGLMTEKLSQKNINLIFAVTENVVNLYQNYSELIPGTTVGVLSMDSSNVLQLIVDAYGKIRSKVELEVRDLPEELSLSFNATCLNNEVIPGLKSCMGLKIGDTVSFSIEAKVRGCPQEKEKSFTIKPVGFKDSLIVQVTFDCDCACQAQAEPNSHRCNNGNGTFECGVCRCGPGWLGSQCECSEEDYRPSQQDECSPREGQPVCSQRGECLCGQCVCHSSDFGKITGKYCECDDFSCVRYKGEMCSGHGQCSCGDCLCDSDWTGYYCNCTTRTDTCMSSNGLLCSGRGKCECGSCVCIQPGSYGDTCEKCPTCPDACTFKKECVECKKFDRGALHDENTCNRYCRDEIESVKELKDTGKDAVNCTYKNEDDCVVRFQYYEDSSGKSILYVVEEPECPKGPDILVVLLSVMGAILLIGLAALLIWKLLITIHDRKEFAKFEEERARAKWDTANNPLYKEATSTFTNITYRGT

[4] = target: GP IIb/IIIa platelet receptor (integrin heterodimeric glycoprotein IIb/IIIa) (human) (UniProt P08514); test: competition with trace 99mTc-labeled peptide on activated formalin-fixed human platelets
[5] = target: GP IIb/IIIa platelet receptor (integrin heterodimeric glycoprotein IIb/IIIa) (human) (UniProt P08514); test: radioligand saturation binding to human blood clots, carrier-free preparation
[6] = target: GP IIb/IIIa platelet receptor (integrin heterodimeric glycoprotein IIb/IIIa) (human) (UniProt P08514); test: radioligand saturation binding, ADP-activated formalin-fixed human platelets, filtration
[7] = target: GP IIb/IIIa platelet receptor (integrin heterodimeric glycoprotein IIb/IIIa) (human) (UniProt P08514); test: radioligand saturation binding, ADP-activated human platelets in platelet rich plasma, filtration
tuftsin receptor (human) [8] = test: radioligand saturation binding, fresh and formalin-fixed HL-60 cells, filtration
tuftsin receptor (human) [9] = test: radioligand saturation binding, fresh and formalin-fixed human PMN leukocytes, filtration
tuftsin receptor (human) [10] = test: binding to human leukocytes
tuftsin receptor (human) [11] = test: cell-based or functional assay
tuftsin receptor (human) [12] = test: competition with 99mTc-labeled peptide on HL-60 cells; remark: listed apart in the source

## ^99Tc-Thr-[D-Lys-Gly-D-Cys]-Arg (peptide)
Tuftsin receptor (human) [1]
  IC50: 1 to 5 nM
Tuftsin receptor (human) [2]
  IC50: 1 to 5 nM

## ^99mTc-labeled PEG8000-D-Arg-Gly-D-Cys-β-Ala (peptide)
[3]
  Kd: 5 to 20 nM

## ^99Tc-[D-Arg-Gly-D-Cys]-β-Ala (peptide)
[4]
  IC50: 5 to 10 nM

## ^99mTc-[D-Arg-Gly-D-Cys]-β-Ala (peptide)
[3]
  Kd: 5 to 10 nM
[5]
  Kd: 5 to 10 nM
[6]
  Kd: 5 to 10 nM
[7]
  Kd: 5 to 10 nM

## ^99mTc-Thr-[D-Lys-Gly-D-Cys]-Arg (peptide)
Tuftsin receptor (human) [8]
  Kd: 1 to 5 nM
Tuftsin receptor (human) [9]
  Kd: 1 to 5 nM

## T[dK]G[dC]R [Thr-D-Lys-Gly-D-Cys-Arg (unlabeled, not complexed to a metal ion)]
Tuftsin receptor (human) [10]
  Kd: 100000 nM
Tuftsin receptor (human) [2]
  IC50: 2000 to 5000 nM

## TKPR [natural tuftsin Thr-Lys-Pro-Arg]
Tuftsin receptor (human) [11]
  nitroblue tetrazolium dye reduction (hexose monophosphate shunt activity) in human PMN granulocytes: concentration of maximal stimulation: 100 nM
Tuftsin receptor (human) [12]
  IC50: 100 nM
Tuftsin receptor (human) [2]
  IC50: 100 nM

## T[dK]G[dC]R (also: ReO[V] complexed to D-Lys-Gly-D-Cys) [Thr-ReO[V]-[D-Lys-Gly-D-Cys]-Arg]
Tuftsin receptor (human) [11]
  nitroblue tetrazolium dye reduction (hexose monophosphate shunt activity) in human PMN granulocytes: concentration of maximum stimulation: 1 to 5 nM
  stimulation of phagocytosis of heat inactivated yeast cells by human PMN granulocytes: concentration of maximal stimulation: 1 nM
